The record followed here is patent US20200283528A1 (NUMAB THERAPEUTICS, published 2020).

For assay [1], the target named is T1, human PDL1 (recombinant, soluble) (human, UniProt Q9NZQ7 19-238).
T1 construct: also called hPDL1; hPD-L1
Put plainly: PDL1/PD-1 competition ELISA; PD-1 coated, biotinylated PDL1 1 ng/ml. How it is done:
(§1) ELISA microplates coated overnight at 4° C. with 4 μg/ml human PD-1 were washed three times with 450 μl wash buffer per well. Plates were blocked for 1 hour at room temperature by adding 300 μl of PBS with 1% BSA and 0.2% tween (dilution buffer) to each well. […] The mixtures were pre-incubated for 1 hour at room temperature under gentle agitation on a rotating mixer (21 rpm) and added to the microplates after 3 wash cycles with 450 μl wash buffer per well. Plates were incubated for 1.5 hours at room temperature under gentle agitation, then 10 ng/ml streptavidin-polyHRP40 was added to each microplate well after three washes with 450 μl of wash buffer per well. After 1 h incubation at RT, plates were washed three times with 450 μl wash buffer and TMB substrate solution was added. The enzymatic reaction was stopped after 6 minutes by addition of 1 M HCl and absorbance was measured at 450 nm using 690 nm as a reference wavelength. For calculation of IC₅₀ values, a four-parameter logistic (4PL) curve fit was performed in Graph Pad Prism using reference subtracted values.

Assay [2] addresses T1, human PDL1 (recombinant, soluble). As to the kind of experiment: PDL1/B7-1 competition ELISA; B7-1 coated, biotinylated PDL1 40 ng/ml. How it is done:
as §1, with “B7-1” for “PD-1”
For orientation: ELISA stands for enzyme-linked immunosorbent assay.

The target of assay [3] is T2, human PDL1 expressed on cells (human, UniProt Q9NZQ7 19-290). As to the kind of experiment: cell-based or functional assay.
Assay [4] has as its target T2, human PDL1 expressed on cells. As to the kind of experiment: cell-based or functional assay. This is another data set of the same source.
Assay [5] addresses cynomolgus PDL1, recombinant (Sino Biological) / PDL1-Fc chimeric protein (cynomolgus (Macaca fascicularis), UniProt G7PSE7 19-238). Put plainly: SPR Biacore T200; cynomolgus PDL1 (Sino Biological) captured; scFv as analyte. How it is done:
After each analyte injection cycle, the CM5 sensor chip was regenerated and new antigen was captured. The scFvs were injected as analyte using a dose response multicycle kinetic assay with concentrations of the analyte ranging from 0.12 to 30 nM diluted in running buffer for 5 min and dissociation of the protein was allowed to proceed for 12 min. Obtained sensorgrams were fitted using the 1:1 binding model.
Background: Surface plasmon resonance follows binding to a sensor surface in real time, without labels.

For orientation: IC50 means the concentration needed to halve the response being measured. By Kd is commonly meant a measure of binding affinity in units of concentration. The term koff denotes the rate constant with which the complex falls apart. For orientation: kon means a measure of how fast the partners come together.

cynomolgus PDL1, recombinant (Sino Biological) / PDL1-Fc chimeric protein, sequence (G7PSE7 entry or part of it mutant limits assumed): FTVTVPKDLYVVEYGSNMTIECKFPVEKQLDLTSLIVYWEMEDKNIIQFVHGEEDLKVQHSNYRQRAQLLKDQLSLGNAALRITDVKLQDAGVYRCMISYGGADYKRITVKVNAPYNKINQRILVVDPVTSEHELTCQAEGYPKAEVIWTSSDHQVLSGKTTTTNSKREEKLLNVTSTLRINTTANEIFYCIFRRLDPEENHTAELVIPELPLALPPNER

B1: PRO1059 (33-03-G02 IgG1 LC with 38_02_A04 sc01 scFv, PDL1/CD137 (scFv) silent Morrison) (bispecific antibody)
light: DIQMTQSPSSLSASVGDRVTITCQASQSINDYLAWYQQKPGKAPKLLIYKASTLASGVPSRFSGSGSGTDFTLTISSLQPEDFATYYCQQGYIITDIDNVFGTGTKVTVLGTVAAPSVFIFPPSDEQLKSGTASVVCLLNNFYPREAKVQWKVDNALQSGNSQESVTEQDSKDSTYSLSSTLTLSKADYEKHKVYACEVTHQGLSSPVTKSFNRGECGGGGSGGGGSIQMTQSPSSLSASVGDRVTITCQASQSINNVLAWYQQKPGKAPKLLIYRASTLASGVPSRFSGSGSGTDFTLTISSLQPEDFATYYCQSSYGNYGDFGTGTKVTVLGGGGGSGGGGSGGGGSGGGGSQVQLQESGPGLVKPSETLSLTCKVSGFSFSNSYWICWIRQPPGKGLEWIGCTFVGSSDSTYYANWAKGRVTISVDSSKNQFSLKLSSVTAADTAVYYCARHPSDAVYGYANNLWGQGTLVTVSS
heavy: QVQLQESGPGLVKPSETLSLTCKVSGFSFSSGYDMCWIRQPPGKGLEWIGCVVAGSVDITYYASWAKGRVTISVDSSKNQFSLKLSSVTAADTAVYYCARKDAYSDAFNLWGQGTLVTVSSASTKGPSVFPLAPSSKSTSGGTAALGCLVKDYFPEPVTVSWNSGALTSGVHTFPAVLQSSGLYSLSSVVTVPSSSLGTQTYICNVNHKPSNTKVDKRVEPKSCDKTHTCPPCPAPEAAGGPSVFLFPPKPKDTLMISRTPEVTCVVVDVSHEDPEVKFNWYVDGVEVHNAKTKPREEQYNSTYRVVSVLTVLHQDWLNGKEYKCKVSNKALGAPIEKTISKAKGQPREPQVYTLPPSREEMTKNQVSLTCLVKGFYPSDIAVEWESNGQPENNYKTTPPVLDSDGSFFLYSKLTVDKSRWQQGNVFSCSVMHEALHNHYTQKSLSLSPGK
notes: also called Morrison-L
Take B1: the values for the IC50 in assay [1] and in assay [2] were 0.00454 µg/mL and 0.029 µg/mL, respectively. In addition, in assay [3], the “NF-AT potency assay IC50” value was found to be 0.0938 µg/mL.

B2: PRO1347 (37-20-B03-sc09 scFv) (scFv)
chain: DIQMTQSPASLSASVGDRVTITCQASQSIGTYLAWYQQKPGKPPKLLIYRAFILASGVPSRFSGSGSGTDFTLTISSLQPEDFATYYCQSNFYSDSTTIGPNAFGTGTKVTVLGGGGGSGGGGSGGGGSGGGGSEVQLVESGGGLVQPGGSLRLSCAASGFSFNSDYWIYWVRQAPGKGLEWIACIYGGSSGNTQYASWAQGRFTISRDNSKNTVYLQMNSLRAEDTAVYFCARGYVDYGGATDLWGQGTLVTVSS
For the molecule B2, in assay [4], the “reporter gene assay IC50” value came out at 0.00753 µg/mL and the “reporter gene assay Maximum Inhibition (%)” value stood at 88.9%. For the same molecule, in assay [5], the “KD, cyno/KD, human” value was 1.41; the Kd is 12.7 pM; the dissociation rate constant (koff) came out at 8.77e-05 s⁻¹; the on-rate constant (kon) came to 6.88e+06 M⁻¹ s⁻¹.

B3: PRO963 (= PRO1051)(38_02_A04 sc01 scDb-i/33-03-G02 sc01 scDb-o/19-01-H04-sc03 scFv) (other)
chain: DIQMTQSPSSLSASVGDRVTITCQASQSINDYLAWYQQKPGKAPKLLIYKASTLASGVPSRFSGSGSGTDFTLTISSLQPEDFATYYCQQGYIITDIDNVFGTGTKVTVLGGGGGSQVQLQESGPGLVKPSETLSLTCKVSGFSFSNSYWICWIRQPPGKGLEWIGCTFVGSSDSTYYANWAKGRVTISVDSSKNQFSLKLSSVTAADTAVYYCARHPSDAVYGYANNLWGQGTLVTVSSGGGGSGGGGSGGGGSGGGGSIQMTQSPSSLSASVGDRVTITCQASQSINNVLAWYQQKPGKAPKLLIYRASTLASGVPSRFSGSGSGTDFTLTISSLQPEDFATYYCQSSYGNYGDFGTGTKVTVLGGGGGSQVQLQESGPGLVKPSETLSLTCKVSGFSFSSGYDMCWIRQPPGKGLEWIGCVVAGSVDITYYASWAKGRVTISVDSSKNQFSLKLSSVTAADTAVYYCARKDAYSDAFNLWGQGTLVTVSSGGGGSGGGGSIQMTQSPSSLSASVGDRVTITCQSSESVYSNNQLSWYQQKPGQPPKLLIYDASDLASGVPSRFSGSGSGTDFTLTISSLQPEDFATYYCAGGFSSSSDTAFGGGTKLTVLGGGGGSGGGGSGGGGSGGGGSEVQLVESGGGLVQPGGSLRLSCAASGFSLSSNAMGWVRQAPGKGLEYIGIISVGGFTYYASWAKGRFTISRDNSKNTVYLQMNSLRAEDTATYFCARDRHGGDSSGAFYLWGQGTLVTVSS
Consider B3, for which the “NF-AT potency assay IC50 (with HSA)” value in assay [3] was 0.275 µg/mL.

B4: PRO951 (38-27-C05 sc02 scDb-i/33-03-G02 sc01 scDb-o) (bispecific antibody)
chain: DIQMTQSPSSLSASVGDRVTITCQASQSINDYLAWYQQKPGKAPKLLIYKASTLASGVPSRFSGSGSGTDFTLTISSLQPEDFATYYCQQGYIITDIDNVFGTGTKVTVLGGGGGSEVQLVESGGGLVQPGGSLRLSCAASGFSFNNDYDMCWVRQAPGKGLEWIGCIDTGDGSTYYASWAKGRFTISRDNSKNTVYLQMNSLRAEDTAVYYCAREAASSSGYGMGYFDLWGQGTLVTVSSGGGGSGGGGSGGGGSGGGGSIQMTQSPSSLSASVGDRVTITCQSSQSVYDNNWLAWYQQKPGKAPKLLIYRASNLASGVPSRFSGSGSGTDFTLTISSLQPEDFATYYCQGTYLSSNWYWAFGTGTKVTVLGGGGGSQVQLQESGPGLVKPSETLSLTCKVSGFSFSSGYDMCWIRQPPGKGLEWIGCVVAGSVDITYYASWAKGRVTISVDSSKNQFSLKLSSVTAADTAVYYCARKDAYSDAFNLWGQGTLVTVSS
With B4, the IC50 in assay [1] came out at 0.0095 µg/mL; in assay [2] it was 0.0093 µg/mL. In addition, in assay [3], the “NF-AT potency assay IC50” value came out at 0.0885 µg/mL.

B5: PRO1060 (33-03-G02 IgG1 HC with 38_02_A04 sc01 scFv, PDL1/CD137 (scFv) silent Morrison) (bispecific antibody)
light: DIQMTQSPSSLSASVGDRVTITCQASQSINDYLAWYQQKPGKAPKLLIYKASTLASGVPSRFSGSGSGTDFTLTISSLQPEDFATYYCQQGYIITDIDNVFGTGTKVTVLGTVAAPSVFIFPPSDEQLKSGTASVVCLLNNFYPREAKVQWKVDNALQSGNSQESVTEQDSKDSTYSLSSTLTLSKADYEKHKVYACEVTHQGLSSPVTKSFNRGEC
heavy: QVQLQESGPGLVKPSETLSLTCKVSGFSFSSGYDMCWIRQPPGKGLEWIGCVVAGSVDITYYASWAKGRVTISVDSSKNQFSLKLSSVTAADTAVYYCARKDAYSDAFNLWGQGTLVTVSSASTKGPSVFPLAPSSKSTSGGTAALGCLVKDYFPEPVTVSWNSGALTSGVHTFPAVLQSSGLYSLSSVVTVPSSSLGTQTYICNVNHKPSNTKVDKRVEPKSCDKTHTCPPCPAPEAAGGPSVFLFPPKPKDTLMISRTPEVTCVVVDVSHEDPEVKFNWYVDGVEVHNAKTKPREEQYNSTYRVVSVLTVLHQDWLNGKEYKCKVSNKALGAPIEKTISKAKGQPREPQVYTLPPSREEMTKNQVSLTCLVKGFYPSDIAVEWESNGQPENNYKTTPPVLDSDGSFFLYSKLTVDKSRWQQGNVFSCSVMHEALHNHYTQKSLSLSPGKGGGGSGGGGSIQMTQSPSSLSASVGDRVTITCQASQSINNVLAWYQQKPGKAPKLLIYRASTLASGVPSRFSGSGSGTDFTLTISSLQPEDFATYYCQSSYGNYGDFGTGTKVTVLGGGGGSGGGGSGGGGSGGGGSQVQLQESGPGLVKPSETLSLTCKVSGFSFSNSYWICWIRQPPGKGLEWIGCTFVGSSDSTYYANWAKGRVTISVDSSKNQFSLKLSSVTAADTAVYYCARHPSDAVYGYANNLWGQGTLVTVSS
notes: also called Morrison-H
With B5, the IC50 in assay [1] is 0.00567 µg/mL; in assay [2], 0.0174 µg/mL. Besides, in assay [3], the “NF-AT potency assay IC50” value came out at 0.133 µg/mL.

B6: PRO1062 (33-03-G02 sc01 IgG1 HC with 38_27_C05 sc01 scFv, PDL1/CD137 (scFv) silent Morrison) (bispecific antibody)
light: DIQMTQSPSSLSASVGDRVTITCQASQSINDYLAWYQQKPGKAPKLLIYKASTLASGVPSRFSGSGSGTDFTLTISSLQPEDFATYYCQQGYIITDIDNVFGTGTKVTVLGTVAAPSVFIFPPSDEQLKSGTASVVCLLNNFYPREAKVQWKVDNALQSGNSQESVTEQDSKDSTYSLSSTLTLSKADYEKHKVYACEVTHQGLSSPVTKSFNRGEC
heavy: QVQLQESGPGLVKPSETLSLTCKVSGFSFSSGYDMCWIRQPPGKGLEWIGCVVAGSVDITYYASWAKGRVTISVDSSKNQFSLKLSSVTAADTAVYYCARKDAYSDAFNLWGQGTLVTVSSASTKGPSVFPLAPSSKSTSGGTAALGCLVKDYFPEPVTVSWNSGALTSGVHTFPAVLQSSGLYSLSSVVTVPSSSLGTQTYICNVNHKPSNTKVDKRVEPKSCDKTHTCPPCPAPEAAGGPSVFLFPPKPKDTLMISRTPEVTCVVVDVSHEDPEVKFNWYVDGVEVHNAKTKPREEQYNSTYRVVSVLTVLHQDWLNGKEYKCKVSNKALGAPIEKTISKAKGQPREPQVYTLPPSREEMTKNQVSLTCLVKGFYPSDIAVEWESNGQPENNYKTTPPVLDSDGSFFLYSKLTVDKSRWQQGNVFSCSVMHEALHNHYTQKSLSLSPGKGGGGSGGGGSIQMTQSPSSLSASVGDRVTITCQASQSINNVLAWYQQKPGKAPKLLIYRASTLASGVPSRFSGSGSGTDFTLTISSLQPEDFATYYCQSSYGNYGDFGTGTKVTVLGGGGGSGGGGSGGGGSGGGGSQVQLQESGPGLVKPSETLSLTCKVSGFSFSNSYWICWIRQPPGKGLEWIGCTFVGSSDSTYYANWAKGRVTISVDSSKNQFSLKLSSVTAADTAVYYCARHPSDAVYGYANNLWGQGTLVTVSS
notes: also called Morrison-H
As to B6, the IC50 in assay [1] turned out to be 0.0113 µg/mL; in assay [2] it was 0.0195 µg/mL.
